According to the DeepSol protein solubility set:

test: soluble on expression in E. coli; label from the status in PepcDB or PDB records

| Sequence | soluble on expression in E. coli |
| --- | --- |
| MAHHHHHHMSSESYAIGQEELVYDRMFRVMRTVGEMMRDRKYQVPSSIIPETVGQFCEQYVDREGRRIYRERMTVPCERVGGTHRSRAMVFFASELGMEGMKGYCQTAMDANCERVIIVTHGKVNATVKRYVDCINRSGTGQKVQLFDEDDLVVNITHHELVPKHTQLEDEEVKEMLEAHSLELNMLPRILSTDPVAAYLGLERGRVVRIERKSVSAGFYVTYRQVV | not soluble |
| MAHHHHHHMSSHQILITAPEVYSKRFAQALEARSLIPMAVPVIETIATPDTADMRALLEQDLNGIDYIAFCSRCAVDSLSAALDHRYGGGGESVSERAGSAPAVNEDRRATAVVKVLAKCALAAIGKDADYVFERLRIRTTICPDEPSPAGIAAKLAESGRAEGRTIAVLAPCVEGFTEPDVVPRFVDQLKGMGMKVVRVDAYMTRPVSEEAVSAAVTALKNGSVRGVAFTSAGEIAVLLRRSPQCLMNIDVACFGPYTAGFAAKHGVKVSCVAKDFRSFDGFAATIEQHYASR | soluble |
| MAHHHHHHMSTKYIIEHLDELEEWCIHEYIHICETVRDENVIFTKFCENFSELTNGKYKPACYEKSIDELKNELLSGNICLLDMKAKNKLTCNDKNKIDFLLFGGILGNVPSDDRTSILRNFNFPISRNLGPIQMTTNTAVLVCYIILNDNVELENIPYVDDPEIFLKNNKESITLPFRFVSKYYYTKCEQDKNVPVLPEKFKEYLIKLGDQQFDDMSSFLENEDN | not soluble |
| MAHHHHHHMSTRKEPPKVLKGAAYTECSPISDVSHHKASASKAFLENHYRGMLRDTRSGNTARPVGPRPREPCVDDFVLVKRIGKGAFGEVYLCYKKYDNDKQLYALKRMRKTDMIRKKQISHVRSEKDVMAEAASTNPWVVKLYLSFQDEQYLYMVMEYMPGGDMISWLCIKQRFDVESTRFYIAELCAAVASVHDMFFVHRDIKPDNILLDAKGHIKLTDFGLSKRFAKVGEELLDLEEGNDALCSSNSSANLSNTCGSTCQGPNSVPVVSPHNPHSPTANYNSLTPAGSHASAHPQARRIFESIVGSPGYIAPEILLRQRYGVNCDWWSVGVIMYEMLYGIPPFFSSDTSSTCHKITHWREYLTYPSDRGVPPEATDLLRRLMCDQRDRLDFQGVKEHPFFNDIDWERLRETPPAFVPELSDPLDTHYFPEVEDNTPQQHHQRPEERNAVREVDPRGVIFADYKFNLKR | soluble |
| MAHHHHHHMSTTNPTGETTEWDDLQRKYGNLPPLQKEVKEEEIYLNKLEKLEGVNPLEKKNLHELTLLEENCVDEDYLKIIEKHKANRIKEINRSRALDVFGTVYEISKDNFLTEVNEASKRNPLGEHGGRSMESTRGDEDLEEDEEQGVAASSTEGTEGTHVVIHLYSDNVLACKVINSILIQMARKHKYVKFTKGVYNRIVENYPESKLPTLLIYYNGTCIHQICNLLNNIKGGMNNLSLKTFERLMEKYNILRYPSSWMNSRQSVSDHSVNSSDVDSEEGSRYAEKGTRVRTHKQYTSFNMFDSKYTSRDYSSDEDRELKSRGYASSMLDKKVSRNEL | not soluble |
| MAHHHHHHMSVEELFATARKYSDSVVGGPAWDRLFSLRLTNEEILCIAKKMILSQPTFLMEVNGTKLEEIPPLAVAVRIEAFTNVPKSEGESGGVEKAVALEEKRTAAQQREVLRELASVRAQYRAVLREGNDLMACIDEEERRWNKIEMHREEEQRKRKEHPAAPPSEHDEHIRKNVCALETLQQKREKEEESAQATARTVMAEKKRKKTGKGSRGGGGSEKKFASTSNVTSKEAEIRNVRAHNTALRRLLEKLANELKEEEQTMENLSIDLRGFMSDINKLEKAKLLLTVEHGMLMNTTARLQQSLRDQKEKLRQEQEAAAAEQREISRRLLVQQERTKKSLHEKNGTTELLHRLKTNLSK | not soluble |
| MAHHHHHHMSWLTPSGSSYFLSKVVVNSAPCAPLHLLVMHRCRVAFPCVNYRPLLWRGMLQVPSRPTICDNSLKVQLRHSRISSFKQEGYYRFARAKDIHVDESCFTLLTARGGGPGGQGSNSSSNKVEMRVNMASLSEYFDEELIGNIKANECGKALTSDETQLIISSHEHRSMYQNKEECIRRLQQMIHVASWVPPVEANPIKKPSHIVSERKNERRKKSAVKKMRQTARKGLW | not soluble |
| MAHHHHHHMTGSNGNDEPFKREMRTVKVPHHRFPALKKVWMDVYTPIVEQCKLEIRMNLRGRSVELRTCPATVEAAGNEGSKALLQKAEDFVKAVVAGFDVKDAVALLRMDDVYIEGFEVKDVRANLQGDNLSRCIGRMSGSHGKTKHTIENVTRTRIVIADTHICIMGTTQNIRVARDALCDLIRGSPATKVYTRVRAVMNRVNDTF | soluble |
| MAHHHHHHMTHMGRAADGYQRLGNNYPQVTPSSHFAAASPDPVLATPIQTRPLQGNPFHPLLWNGSATSSTGAAGVQASLSRKSRTRLTSGVTAGSSSGPLSSTLSLSTPLSSCASAAASGEGRFQRRVSRDRFGACSTPTSSSTTAQVLQLQRPAQSPMPPLSSSPPASVGLTAAAARGAVTPANLGRERKVAAVNYNALFQQELQQQQRQGSDTGAWPTPSPSPPSGALQYAQLPPSASADVHGTGAHSGSGEGVSEALSSSVTASSVQAGTAEGPLPPDVRRIIAQSCTSSSSSSGADTNAIIDAAEQQARRLISTGRRVKVYREELTTAEEERNDLSAAVEERRLVRSVLQSEVDDINARIQALLQERALAEAQLHAQDDAAAREARKLTEAQDRVTVLRKTIEGIVEETSAARLMLRQIVPSLHIENYY | not soluble |
| MAHHHHHHMTHYSRKPQVSSKSAKAKVSDLRCHYKNTFETANVINGMPLRKAQQLYRQVLAKTRCIPFKRYNGKIGRTAQAKEWGQTKGRWPRKSVVAMMSLLKNAEANAIEKGLDPNQMVIKHVQVDQAARMRRRTYRAHGRITPYMCSPCHVQLFMSEKKERVPAPKSAPKK | not soluble |
| MAHHHHHHMTRPRLTSAPRGSALKEAISAHQALRNAVAQEQSALDDELKKNEQILAEHEQLMRDWSCDKEGVLATIQKMKEKIAENESKTTEARAEVKQNEEIVKRLHARNEEYEPRLEASAIEIAERLKKREEEEKEMREQLLTFQIACQEREQQYRDQIHKLEETNAQEAVDHQQKVQQLRSKIAEVEATMEEERRAWVVETEMRKQQRLIERHKFFTEEAEEARKGKEACAAIMKEASALRMDSNLLTSLDDLLCC | not soluble |
| MAHHHHHHMTSVYNFKTITVVPTYKDFMDIVLSKTQRKTPTVVHKGYHISRIRQFYMRKVKFTQKTINEKLTYILQEFPRMDDIHPFYGDLMHVLYDRDHYKVALGQVGAVRHMVDNIGRDYVRLLKYGDSLYRCKQLKRAALGRMATACKKLNSALAYLEKVRQHMSRLPSIDPNARTLLVTGFPNVGKSSFMNKVTRADVEVQPYAFTTKSLFVGHTDYKYTTWQVIDTPGILDHSLEERNVIEMQAITALAHLRACILFFMDLSGQCGYSIEQQVSLFKSVGPLFTGKPVVVVFNKCDVCTIDDVSSAEQELIMDAIQEADAKWITTSTLTDVGVGDLKTVACDMLLAHRSEQKEGSGRYQAIQNRLYCATPQQRDELERPAFVPASVLQARATGEPPRQRRKTERDYEWENGGPGQYQKNERKTWDLENPEWVDDIIPDIMDGHNIYDNIDPDIHQRLLELEAEEEARLEDLELEASRKHEQYTLDNDTIEAVKFIKDKIKVLKMERAMKNPAIRRTHSQAMAIDKFNKRTGSQDARAKSIADGSGEVPTRKRGRSMSVAQEALIRDRSGSAHVSTKTTRSISGASASRERSMSVNRGDGYRDVNEKLRAVKLSKVKARPLARQARKGEGDHHIPNLRPMHLFTGKVKSNGARDRR | not soluble |
| MAHHHHHHMTTPSSPAHPAAHLCDVTGDTAAAAAAGASGMMADTARMLSPRPSVTRTAAKTSGGPVQVALSQSCPHPHQQHQQHHQHHQHQQHHQHHQHQQHHQHHQHQQHHQHQQHQQHQQPCLGGLLDPFFLTEIDENVQAFSGTAATSGSHTSLSGDGGSPSAKDAALCSPCVECVPPARGKTVRKSRSACELRLECLLSTSMGSDITKDEADDSKRKRRQPSSFPSSSRRDTAGCFSSVEVMGPTDEVAAADEAIATTAATAADAEAGVKSRDPKRRSLLPTWVTARTSTVTRAGAPPTDSGETSRTANGCLASPRSFSLSHSKPSSGSRDTSEGSHVLDCEATLLPSESVGVVASTHSSTVSSYASEAQGRAAEEATNCATAGGATVGSKMTLLVSLIMRCTPSRRGPPHSASPTEDGAADAERLPPLELYPPLVSPSSIEEASCGVGYDVPSAHHDDMYAMKDITVAVKEDVNQRRGALAKEPTLPASTASRRTQHTKWSMHPSPVSAWLLGSSAVGASLSTALWRAALRSRPAMHTPCSCVSARAEQHSVQVLSRVLANGSAVSTKVLAMRSWAEFERASVSFPSTWSASVSAHLSAVPPSLTTDSTTLRGPSMLHLTLPPLPDQTSVGPASIAYINRAPSRPAATAEEVVARQPCDVWRLARCYAHFERAVEQRGEDGVWSARGISSLATWDSVKLVVAAGVASRDAESSTDEGCEDGGAWLLPSFTLDVVPDTLDTPSPASPQVTSTFPFSPVVSVLRAEKEEEVFTSAVMWALEMMTGVR | soluble |
| MAHHHHHHMTTVLNRRFDVLCHSGTCPSYLIDVLSLLVAHANDTELFKTELRKGDGGEFGAAATGAGSAHATSSTGPASRTDRAVGEARERQAADRRTQLMYKQVEDPEVLDDALRASHETVLIAAERSLQTYTEDLKHINDIAMATSAKQLRAMRVETQQQMEAFRDRVCGSVVAQTKEELEVMRSELAASVRADVSDMVRQLHQVSFSTQQQLQQLTSSYTDFVAQAHDALTLAPLADAYEAVKTVEYMQEQLKCIEAAATTRSDVETLEERLKDLESIVTTLGSVAKTPDVGAAAAAREGFSVNVPPPLSLSQQKPVLSNRSASHRSQTPKCTSPLPLHLHVSRSASAKGRPSSPPPASPGPPAQRTLAERLGVAVEAAEDGVVLAEVLPGSAAAAHRLGVGHIISHVGRTAVKTPAAFEEALRGIEGQAVKITAYDPFNGRVRVLTAQPL | not soluble |
| MAHHHHHHMTVNNSNNNNNGERLGSGTARLFVGQLNFDATEHDLRQIFSFYGHVIHTNVLRDADGKSTGSGFVTFRVTDEADFAIMSMHDRYNMGREKPLQVSYCRRSERISPFGYEHAMKLREKNTTNPPPPQPTSS | soluble |
| MAHHHHHHMVLLSVKGTTFPDEFVYECTAATAIYPDLARNLCHIQNSRHLVKLILLSARELLDEARCKKRVEVVDEGPGDGGANSYSALLTEYGAIIESTSARLKDRVVPVSLEEFDQYADRLRELTERLYPEECCVPEGGRSAAVDRLYQLHDDPNLDEDRRLAVYHCRAILDPQWKSHEQQKEDKAGLWFCGKLMEDTIARYSGKNEKSRLTVKVHPKDSVPPSTEPRISYDDQRALYERMRTRREEYKGLEESELRDRVVAQARGKVALTAPAAASPAMSMDLSRLRPICPKREEHEVN | not soluble |
| MAHHHHHHMVNLRLQVAVVGAPTVGKTAFVQMLHSNGTTFPKNYLMTLGCDFIVKEVPVDDDNTVEMIIFDVSGQREYEPMVSSYLQNTAVFIVMYDVSNKVTFEACARWVNQVRTNSKESVGILIANKSDLSDKAEVTDRQGKDLANANKMKFYKISTLRGVGITEPIDEIARHYVDAYQKRIEQLTQMR | not soluble |
| MAHHHHHHMWNLNRLYRQNELSMHGVRNNHDIIVVRQVNISDKNNPDNYLHNQNNTNTSIKQNPQSVILNEKELLNLVQNFNHINRKHKGFCETSIFKNSTFSNTNNEHNGEDSFNTYLIIDKWKTKREFEKSKKEFEKLFAHKNHLYDKKMEDIYLNYEMYNNNYETVSAQNIFQKLYYFIFD | not soluble |
| MAHHHHHHMWRQLMCSYSSKEKLGSKIYTQKKITKREKLLGIVKPFVDENCDSAEPYVIAYYLNNPINLATLKSAYEKVGSQVLYKDPYLYVESCSHFNQQNSSAVFFKNGCMVIWSMNKQNRNKFFHFSKQFLHINSESTIDHYDFEELQVENISNKSYVNNSVIYLTSSNYRTTDKIAISFGLLSAVRLNNLEKKIEKKLFYENDQIENLKKKMKSSNLDHLSKQLFTSKITLHNLRYELNIDQDILDVPEALWELEYQKKLFLNILHIFDIKQRVDLLNHRLSWTLDYLNSFLDYVNQKHSSRLERIIIVIVGLELVLGIMQMGNTIGL | not soluble |
